Measurements published in US20240376199A1 (University of Texas, published 2024).

B1: TREM2-Ab8Hu (antibody, V domains shown)
VH: QVQLVESGGGLIQPGGSLRLSCAVSGVSVSNNYMNWVRQAPGKGLEWVSSMYSDATTHYADSVKGRFTISRDNSKNNMYLQMDSLRAEDTAVYYCARESVAGTLDFWGQGTTVSVSS
VL: SYELTQPPSASGTPGQRVTISCSGSSSNIGTYPVNWYQKLPGTAPKLLIYTNNQRPSGVPDRFSGSKSGTSASLTISGLQSEDEADYYCATWGDSLNAVVFGGGTKVTVL
notes: also called H8-Hu / 8L-Hu
B2: TREM2-Ab1Rb (antibody, V domains shown)
VH: QEQLVESGGGLVTPGGTLTLTCTASGIDFSNYGISWVRQAPGKGLEWIGYIYPDYGATAYANWVNGRFTVSLDNAQNTVTLNMTSLTAADTATYFCARSTGWGDFNLWGPGTLVTVSS
VL: DVVMTQTPASVSEPVGGTVTIKCQASQNIGSNLAWYQQKPGQPPNLLIYGASNLASGVSSRFKGSSSGTEYTLTISDLECADAATYYCQCTYYGSSYVAFGGGTEVVVK
notes: Rabbit-derived mAb; also called 1 H / 1 k
B3: TREM2-Ab22Rb (antibody, V domains shown)
VH: QSVEESGGDLVKPGASLTLTCTASGFSFSSTAMCWVRQAPGKGLEWIACIGFSSGIINYANSVKGRFTISKTSSTTVSLQMNSLTAADTATYFCARFFNLWGPGTLVTVSS
VL: DPVLTQTPSSVSAAVGGTVTISCQATETVYSNDRLAWYQQKPGQPPKLLIYRISTLESGVPSRFKGSGSGTQFTLTISGVQCDDAATYYCAGGYNGNIWAFGGGTEVVVK
notes: Rabbit-derived mAb; also called 22 H / 22 k
B4: TREM2-Ab26Rb (antibody, V domains shown)
VH: QKQLVESGGDLVKPEGSLTLTCTASGFSFSYSYYMCWVRQAPGKGLEWIGCIYGGGSGSSYYASWAKGRFTISKTSSTTVTLQVTSLTAADTATYFCARIDDAYATVMWGPGTLVTVSS
VL: DVVMTQTASPVSGAVGGTVTIKCQASEDIYSSLAWYQQKPGQPPKLLIYQASKLASGVPPRFSGSGSGTEYTLTISDLECADAATYYCQNYYYVRGADYWAFGGGTEVVVE
notes: Rabbit-derived mAb; also called 26 H / 26 k
B5: TREM2-Ab16Rb (antibody, V domains shown)
VH: QEQLVESGGGLVKPGASLTLTCTASGFSFSDTAYICWVRQAPGKGLEWVACIAFGDGRTYLASWAKGRFTISKTSSTTVTLQMTSLPAADTATYFCASNFTLWGPGTLVTVSS
VL: DVVMTQTPASVSEPVGGTVTINCQAIQSIGNNFVWYQQKPGQPPKLLIYKASIRASGVSSRFRGSGSGTDFTLTISDLECDDTGTYYCQCTYASSATFGGGTEVVVK
notes: Rabbit-derived mAb; also called 16 H / 16 k
B6: TREM2-Ab12Rb (antibody, V domains shown)
VH: QSVEESGGDLVKSGASLTLTCTASGFSFSSYYFMCWVRQAPGRGLEWIACIYAGTSANTYYASWAKGRFTISKTSSTTVTLQMTSLTAADTATYFCARDRGYYTYADAGYAYATDGFDLWGPGTLVTVSS
VL: ALVMTQTPASVEAAVGGTVTIKCQASQNIYSNLAWYQQKPGQPPKRLIYKASTLPSGVPSRFKGSGSGTQFTLTISDLECADAATYYCQSNYYSSSSNYGPNAFGGGTEVVVK
notes: Rabbit-derived mAb; also called 12 H / 12 k
B7: TREM2-Ab2Rb (antibody, V domains shown)
VH: QKQLVESGGGLVKPEGSLTLTCKVSGIDFSSAGISWVRQAPGKGLEWIAYIYPDYGVTDYANWVNGRFTISLDNAQNTVFLQMTSLTAADTATYFCARMDAADAGYGYDLWGPGTLVTVSS
VL: AAVLTQTTSPVSGAVGGTVTIKCQASQSVGSNLAWYQQKPGQPPKILIGGASKLASGVPSRFSGSGSGTEFTLTISDLECADAGTYYCHSYYYSSTSADAFGGGTKVVVE
notes: Rabbit-derived mAb; also called 2 H / 2 k
B8: TREM2-Ab6Rb (antibody, V domains shown)
VH: QKQLVESGGGLVKPEGSLTLTCKVSGIDFSSAGISWVRQAPGKGLEWIAYIYPDYGVTDYANWVNGRFTISLDNAQNTVFLQMTSLTAADTATYFCARMDAADAGYGYDLWGPGTLVTVSS
VL: DVVMTQTTSPVSGAVGGTVTIKCQASQSVGTNLAWYQQKPGQPPKILIGGASKLASGVPSRFSGSGSGTEFTFTISDLECADAGTYYCHSYYYSSTSADAFGGGTEVVVK
notes: also called 2 H / 6 k
B9: TREM2-Ab2Hu (antibody, V domains shown)
VH: QVQLVQSGAEVKKPGASVKVSCKASGYTFTSYYMHWVRQAPGQGLEWMGIINPSGGSTSYAQKFQGRVTMTRDTSTSTVYMELSSLRSEDTAVYYCARDRPGRSSIAAAGPKRGHYGMDVWGQGTTVSVSS
VL: QSALNQPASVSGSPGQSITISCTGTSSDVGGYNYVSWYQQHPGKAPKLMIYEVSNRPSGVSNRFSGSKSGNTASLTISGLQAEDEADYYCSSYTSSRTLVFGTGTKVTVL
notes: also called H2-Hu / 2L-Hu
B10: TREM2-Ab19Hu (antibody, V domains shown)
VH: EVQLVQSGAEVKKPGASVKVSCKASGYTFTSYYMHWVRQAPGQGLEWMGIINPSGGSTSYAQKFQGRVTMTRDTSTSTVYMELSSLRSEDTAVYYCARSLSSGSYYDYWGQGTLVSVSS
VL: QSALTQPASVSGSPGQSITISCTGTSSDVGGYNYVSWYQQHPGKAPKLMIYDVTKRPSGVSNRFSGSKSGNTASLTVSGLQAEDEADYYCSSYTSSRTLVFGGGTKVTVL
notes: also called H19-Hu / 19L-Hu
B11: Ab18 IgG (antibody, V domains shown)
VH: QVQLQESGPGLVKPSETLSLTCTVSGGSISSYYWSWIRQPPGKGLEWIGSIYYSGSTNYNPSLKSRVTISVDTSKNQFSLKLSSVTAADTAVYYCARDGGGEYPSGTPFDIWGQGTMVTVSS
VL: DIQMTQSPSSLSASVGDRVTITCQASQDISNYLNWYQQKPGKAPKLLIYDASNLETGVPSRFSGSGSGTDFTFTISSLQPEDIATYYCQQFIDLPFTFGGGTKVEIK
B12: biotinylated TREM2 protein (Sino Biological) (receptor)
chain: LNTTVLQGMAGQSLRVSCTYDALKHWGRRKAWCRQLGEEGPCQRVVSTHGVWLLAFLKKRNGSTVIADDTLAGTVTITLKNLQAGDAGLYQCQSLRGREAEVLQKVLVEVLEDPLDDQDAGDLWVPEESSSFEGAQVEHSTSRNQETSFPPTS
modifications: Biotinylated; sites not stated.
notes: not shown: biotin label

target: TREM2 (antigen of the BLI kinetics and binning of Tables 2 and 3); assay: BLI, Octet Red96

First: B1
Second: B2
The Kd of the first is 5.8-fold higher: 8.18 nM for the first, 1.42 nM for the second.

Going from B3 to B4, the Kd rises from 3.1 nM to 27.5 nM (8.9-fold).

Compared with B5, B6 is 220-fold higher in Kd: 0.32 nM for the first, 71.8 nM for the second.

First: B7
Second: B8
The Kd of the first is 1.6-fold lower: 1.2 nM for the first, 1.97 nM for the second. The first binds more tightly here.

B9 and B10 are within 1.5-fold of each other in Kd: 18.1 nM for the first, 18.9 nM for the second.

Compared with B1, B2 is 6.9-fold lower in koff: 0.00499 s⁻¹ for the first, 0.000727 s⁻¹ for the second.

Going from B3 to B4, the koff rises from 0.00107 s⁻¹ to 0.00487 s⁻¹ (4.6-fold).

First: B5
Second: B6
The koff of the first is 87-fold lower: 7.84e-05 s⁻¹ for the first, 0.00685 s⁻¹ for the second.

Compared with B7, B8 is 2-fold higher in koff: 0.000451 s⁻¹ for the first, 0.000909 s⁻¹ for the second.

First: B9
Second: B10
The koff of the first is 1.5-fold lower: 0.00647 s⁻¹ for the first, 0.00986 s⁻¹ for the second.

B1 and B2 are within 1.5-fold of each other in kon: 609000 M⁻¹ s⁻¹ for the first, 513000 M⁻¹ s⁻¹ for the second.

Compared with B3, B4 is 2-fold lower in kon: 346000 M⁻¹ s⁻¹ for the first, 177000 M⁻¹ s⁻¹ for the second.

Compared with B5, B6 is 2.6-fold lower in kon: 245000 M⁻¹ s⁻¹ for the first, 95500 M⁻¹ s⁻¹ for the second.

B7 and B8 are within 1.5-fold of each other in kon: 376000 M⁻¹ s⁻¹ for the first, 461000 M⁻¹ s⁻¹ for the second.

B9 and B10 are within 1.5-fold of each other in kon: 359000 M⁻¹ s⁻¹ for the first, 522000 M⁻¹ s⁻¹ for the second.

target: TREM2-DAP12 reporter construct on 2B4 NFAT-EGFP reporter cells (mouse; human, UniProt Q99NH8 19-171; O43914 28-113); assay: cell-based or functional assay

B11 was tested, and the “EC50 of activation of TREM2-DAP12 NFAT-EGFP reporter cells” value was 79.4 nM.

target: T1, muTfR-His (Sino Biological) (mouse, UniProt Q62351 89-763); assay: sandwich BLI, biotinylated TREM2 on streptavidin sensor, antibody step omitted
T1 construct: extracellular domain; Bought protein; also called TfR ECD; mouse transferrin receptor; not shown: His tag
T1 sequence (Q62351 89-763): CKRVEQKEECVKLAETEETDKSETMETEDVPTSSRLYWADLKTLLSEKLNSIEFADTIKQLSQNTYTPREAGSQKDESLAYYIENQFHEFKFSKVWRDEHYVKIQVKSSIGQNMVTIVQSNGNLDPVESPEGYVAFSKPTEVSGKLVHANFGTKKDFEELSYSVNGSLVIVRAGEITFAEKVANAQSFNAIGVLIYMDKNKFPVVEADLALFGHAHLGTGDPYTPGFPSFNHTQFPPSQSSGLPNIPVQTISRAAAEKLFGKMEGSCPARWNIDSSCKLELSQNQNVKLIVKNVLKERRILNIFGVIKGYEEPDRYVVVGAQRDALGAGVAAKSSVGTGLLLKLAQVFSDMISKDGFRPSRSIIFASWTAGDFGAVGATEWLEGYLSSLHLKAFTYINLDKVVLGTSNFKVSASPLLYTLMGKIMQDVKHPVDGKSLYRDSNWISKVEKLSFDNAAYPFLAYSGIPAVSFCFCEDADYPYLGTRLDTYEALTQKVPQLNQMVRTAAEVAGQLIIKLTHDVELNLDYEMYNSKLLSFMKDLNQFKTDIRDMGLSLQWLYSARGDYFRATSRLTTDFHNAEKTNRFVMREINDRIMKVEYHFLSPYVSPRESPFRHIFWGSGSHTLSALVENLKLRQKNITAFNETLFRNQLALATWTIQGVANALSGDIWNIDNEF
Experimental: Streptavidin sensors (Fortebio) were used to capture biotinylated TREM2 proteins (Sino Biological). During all incubation steps, samples were kept at room temperature with 1000 rpm shaking. In the TREM2 loading step, 100 nM biotinylated TREM2 proteins were incubated with the sensors for the designated time. In the bispecific antibody interaction steps, 200 nM antibodies were used. In the muTfR incubation step, 100 nM muTfR-His (Sino Biological) were used. Between incubations, the sensors were dipped into blank kinetic buffers to allow the free dissociation of proteins.

B12: no binding (tested: 100 nM).
